This is an account of results in patent publication US20220033505A1.

Test [1] concerns the target HLA-A exogenously expressed on cells (K562-HLA-A) (human) (UniProt P04439). The test is described as follows: flow cytometry; IgG1 mAb on cells expressing HLA-A. On the technique in general: A flow cytometer gives signals particle by particle.
For test [2], the target named is HLA-B exogenously expressed on cells (K562-HLA-B) (human) (UniProt P01889). The test is described as follows: flow cytometry; IgG1 mAb on cells expressing HLA-B.
Test [3] concerns the target HLA-C exogenously expressed on cells (K562-HLA-C) (human) (UniProt P10321). Description: flow cytometry; IgG1 mAb on cells expressing HLA-C.

Chain of HLA-B exogenously expressed on cells (K562-HLA-B) (human) (P01889 25-362): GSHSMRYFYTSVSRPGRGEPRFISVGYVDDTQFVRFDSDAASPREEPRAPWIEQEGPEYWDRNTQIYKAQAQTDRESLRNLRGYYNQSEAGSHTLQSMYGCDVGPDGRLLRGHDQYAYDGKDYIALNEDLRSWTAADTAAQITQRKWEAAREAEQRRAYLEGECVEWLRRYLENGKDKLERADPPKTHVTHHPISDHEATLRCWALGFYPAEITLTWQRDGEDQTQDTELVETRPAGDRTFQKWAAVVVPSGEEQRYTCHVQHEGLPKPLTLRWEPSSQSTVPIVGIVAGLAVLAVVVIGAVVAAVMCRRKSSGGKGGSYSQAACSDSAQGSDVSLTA
Chain of HLA-C exogenously expressed on cells (K562-HLA-C) (human) (P10321 25-366): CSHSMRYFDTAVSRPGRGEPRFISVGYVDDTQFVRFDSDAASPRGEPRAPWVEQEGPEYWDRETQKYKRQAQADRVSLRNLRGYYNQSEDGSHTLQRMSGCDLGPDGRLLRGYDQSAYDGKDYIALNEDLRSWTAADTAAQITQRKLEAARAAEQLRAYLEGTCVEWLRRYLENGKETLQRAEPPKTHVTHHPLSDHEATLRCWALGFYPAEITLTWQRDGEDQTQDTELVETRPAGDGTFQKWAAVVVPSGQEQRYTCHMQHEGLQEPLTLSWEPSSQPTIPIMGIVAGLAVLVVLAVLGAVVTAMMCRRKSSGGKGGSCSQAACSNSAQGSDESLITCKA

B1: MHGB689 (antibody, human IgG1, kappa, V domains shown)
VH: QVQLQQSGPGLVKPSQTLSLTCVISGDSVSSNRAAWNWIRQSPSRGLEWLGRTYYRSKWYNDYAVSVKSRITINSDTSKNQISLQLNSVTPEDTAVYYCARVRPGIPFDYWGQGTTVTVSS
VL: DIQMTQSPDSLAVSLGERATINCESSQSVLFSSNKKNYLAWYQQKPGQPPKLLIYWASTRESGVPDRFSGSGSGTDFTLTINRLQAEDVAVYYCQQYNSTPWTFGQGTKVEIKR
Consider B1, for which the figures for the Geomean fluorescence signal (maximum value for binding) in test [1], in test [2] and in test [3] were 2540, 5790 and 266, respectively.
